We go through 6 molecules from US20230416382A1 (Five Prime, published 2023).

One experiment has as its target T1, mCCR8.
T1 construct: also called murine CCR8; mouse CCR8
T1 receptor: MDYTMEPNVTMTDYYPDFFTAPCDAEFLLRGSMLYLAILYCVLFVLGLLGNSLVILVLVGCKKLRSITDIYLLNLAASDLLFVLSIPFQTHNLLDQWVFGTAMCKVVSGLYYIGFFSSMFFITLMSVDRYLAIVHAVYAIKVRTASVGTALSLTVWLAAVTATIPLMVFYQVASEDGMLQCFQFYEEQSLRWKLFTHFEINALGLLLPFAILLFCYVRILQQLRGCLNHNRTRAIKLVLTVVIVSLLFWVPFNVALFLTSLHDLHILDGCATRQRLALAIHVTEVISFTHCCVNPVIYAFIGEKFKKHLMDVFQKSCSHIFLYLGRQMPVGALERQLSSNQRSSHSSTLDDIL
In words: flow cytometry titration on mCCR8_293 (HEK293) cells, anti-hIgG BV421 secondary. As for the experimental part:
(§1) To determine the binding potency of anti-CCR8 antibodies, a flow based binding study was performed. HEK293 were transfected using expression vectors containing human CCR8 (hCCR8), cynomolgus CCR8 (cyCCR8) or murine CCR8 (mCCR8). Anti-CCR8 antibodies were tittered in the presence of hCCR8_293 (FIG. 8A), cyCCR8_293 cells (FIG. 8B) or mCCR8_293 cells (FIG. 8C). The cells were subsequently stained with an anti-hIgG secondary antibody conjugated to Brilliant Violet 421 (Biolegend) to visualize bound anti-CCR8 antibodies. The geometric mean fluorescence intensity of each sample was used to determine the binding EC50 of each antibody with Prism v.8 (Table 4; Graphpad).

Experiment [1] has as its target T2, human CCR8 (human, UniProt P51685 1-355). In words: cell-based or functional assay.
Experiment [2] concerns the target T2, human CCR8. In words: flow cytometry on HEK293 cells expressing human CCR8, anti-hIgG BV421 secondary. As for the experimental part:
as §1
Background: A flow cytometer gives signals particle by particle.

The target in experiment [3] is T2, human CCR8. In words: cell-based or functional assay. The source holds these as a separate data set.
Experiment [4] addresses T3, human CX3CR1 (human, UniProt P49238 1-355).
T3 construct: whole, on cells; also called hCX3CR1; huCX3CR1
T3 sequence (looked up): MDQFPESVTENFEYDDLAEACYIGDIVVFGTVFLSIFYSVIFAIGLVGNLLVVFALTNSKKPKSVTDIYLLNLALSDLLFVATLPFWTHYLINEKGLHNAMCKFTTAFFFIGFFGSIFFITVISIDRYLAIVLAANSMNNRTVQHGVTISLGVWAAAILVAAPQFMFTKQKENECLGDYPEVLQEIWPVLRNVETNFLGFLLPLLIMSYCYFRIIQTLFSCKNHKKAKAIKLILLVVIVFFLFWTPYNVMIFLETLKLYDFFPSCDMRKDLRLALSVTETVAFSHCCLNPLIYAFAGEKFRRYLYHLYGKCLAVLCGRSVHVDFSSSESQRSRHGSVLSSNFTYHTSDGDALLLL
Nature of the experiment: flow cytometry at 10 ug/ml on dye-barcoded mixed 293 lines, anti-hIgG BV421 secondary. From the text: (§2) To assess antibody binding selectivity, the cell lines were first labelled with unique combinations of fluorescent dyes to permit antibody staining of all cell lines in a single tube. hCCR8_293 cells were labeled with Cell Trace Far Red (Invitrogen). hCCR4_293 cells were labeled with carboxyfluorescein succinimidyl ester (Invitrogen). hCX3CR1_293 cells were labeled with both Cell Trace Far Red and carboxyfluorescein succinimidyl ester. Parental 293 cells were not labeled with dye. Anti-CCR8 antibodies were prepared at a concentration of 10 ug/ml and incubated with labeled hCCR8_293, hCCR4_293, hCX3CR1_293 or parental 293 cells that were pre-mixed at an equivalent ratio. The cells were washed and then subsequently stained with an anti-hIgG secondary antibody conjugated to Brilliant Violet 421 (Biolegend) to visualize bound antibodies. To determine the selectivity of binding, the individual cell lines were first identified in each sample and the geometric median fluorescence intensity of the secondary antibody was obtained for each population (FIG. 9B). […]

The target of experiment [5] is T4, human CCR4 (human, UniProt P51679 1-360).
T4 construct: whole, on cells; also called hCCR4; huCCR4
T4 sequence (looked up): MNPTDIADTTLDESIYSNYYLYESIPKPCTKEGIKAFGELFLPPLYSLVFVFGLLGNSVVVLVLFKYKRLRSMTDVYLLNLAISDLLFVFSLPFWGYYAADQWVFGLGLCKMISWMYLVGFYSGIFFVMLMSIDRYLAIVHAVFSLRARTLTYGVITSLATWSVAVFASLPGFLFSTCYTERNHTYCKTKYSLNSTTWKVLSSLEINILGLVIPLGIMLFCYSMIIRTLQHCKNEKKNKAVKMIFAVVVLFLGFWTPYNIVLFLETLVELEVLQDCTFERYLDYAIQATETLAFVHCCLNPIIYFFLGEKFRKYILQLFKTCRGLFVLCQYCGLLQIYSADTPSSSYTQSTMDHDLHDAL
The experiment is described as above.
Source text: as §2

Experiment [6] deals with T5, cynomolgus CCR8 (Macaca fascicularis (cynomolgus), UniProt O97665 1-356 (rhesus entry)).
T5 construct: On transfected HEK293 cells (cyCCR8_293); also called cyCCR8; Cyno CCR8
T5 sequence (O97665 other isoform, or with tags, fused parts or gaps): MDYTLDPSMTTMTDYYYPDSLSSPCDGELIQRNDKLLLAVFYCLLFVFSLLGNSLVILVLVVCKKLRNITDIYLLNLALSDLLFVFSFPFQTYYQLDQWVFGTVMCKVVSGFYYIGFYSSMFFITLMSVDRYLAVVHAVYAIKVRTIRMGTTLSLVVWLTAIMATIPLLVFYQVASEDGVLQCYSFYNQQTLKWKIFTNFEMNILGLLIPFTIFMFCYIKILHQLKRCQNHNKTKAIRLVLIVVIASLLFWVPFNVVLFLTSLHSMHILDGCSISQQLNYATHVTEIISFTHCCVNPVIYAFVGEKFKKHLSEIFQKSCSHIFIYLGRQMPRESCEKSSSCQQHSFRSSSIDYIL
In words: flow cytometry on HEK293 cells expressing cynomolgus CCR8, anti-hIgG BV421 secondary. As for the experimental part: as §1

The target in experiment [7] is T5, cynomolgus CCR8. Nature of the experiment: flow cytometry titration on cyCCR8_293 (HEK293) cells, anti-hIgG BV421 secondary. As for the experimental part:
as §1

For experiment [8], the target named is T3, human CX3CR1. In words: flow cytometry on mixed dye-labelled HEK293 transfectants, signal compared with parental 293.
Source text: as §2

Experiment [9] concerns the target T4, human CCR4. The experiment is described as above.
Source text: as §2

Where “and” joins values, the source holds several entries; their conditions need not be identical. Equal values may be shown once.

The EC50 is the concentration needed to bring the measured effect to its halfway point. What is called EC50 (read off the curve) is the concentration needed to bring the measured effect to its halfway point.

T2 sequence (P51685 whole entry): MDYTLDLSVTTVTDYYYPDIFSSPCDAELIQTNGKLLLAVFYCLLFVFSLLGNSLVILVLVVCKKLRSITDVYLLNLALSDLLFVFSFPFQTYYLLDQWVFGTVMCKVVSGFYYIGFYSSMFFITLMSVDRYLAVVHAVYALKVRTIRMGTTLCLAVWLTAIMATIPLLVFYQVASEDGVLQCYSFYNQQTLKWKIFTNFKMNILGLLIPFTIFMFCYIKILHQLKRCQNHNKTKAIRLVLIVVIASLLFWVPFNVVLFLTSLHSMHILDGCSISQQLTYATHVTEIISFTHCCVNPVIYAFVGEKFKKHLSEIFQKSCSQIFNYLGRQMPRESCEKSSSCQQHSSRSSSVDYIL

B1: I2676 (antibody, V domains shown)
VH: QVQLVESGGGVVQPGRSLRLSCAASGFTFSSYAMHWVRQAPGKGLEWVAVISYDGSNKYYADSVKGRFTISRDNSKNTLYLQMNSLRAEDTAVYYCARVRDRAFDIWGQGTMVTVSS
VL: QAVLTQPASLSASPGASASLTCTLRSGINVGTYRIYWYQQKPGSPPQYLLRYKSDSDKQQGSGVPSRFSGSKDASANAGILLISGLQSEDEADYYCMIWHSSARNWVFGGGTKLTVL
notes: also called anti-CCR8 antibody clone I2676
Turning to B1, the figures for the binding result with mCCR8, with human CX3CR1 [4] and in the experiment with human CCR4 [5] were “no binding (tested: about 30 ug/ml (log 1.5))”, “no binding (tested: 10 ug/ml)” and “no binding (tested: 10 ug/ml)”, respectively. Further, the “FcR reporter activation EC50 (Hut78 target cells, Jurkat FcγRIIIa NFAT-luciferase)” value (shortened to “FcR reporter activation EC50”) in the experiment with human CCR8 [1] is 0.00592 µg/mL and 39.4 pM. Besides, the EC50 in the experiment with human CCR8 [2] is 0.18 µg/mL and 1.2 nM; with cynomolgus CCR8 [6] it was 0.3 µg/mL and 2 nM. Moreover, in the experiment with human CCR8 [3], the “NK Killing EC50 (primary human NK cells, TALL1 target cells)” value (“NK Killing EC50” for short) was 0.000856 µg/mL and 6 pM.

B2: I3210 (antibody, V domains shown)
VH: QVQLVESGGGVVQPGRSLRLSCAASGFTFSSYAMHWVRQAPGKGLEWVAVISYDGSNKYYADSVKGRFTISRDNSKNTLYLQMNSLRAEDTAVYYCARVRDRAFDIWGQGTMVTVSS
VL: QAVLTQPASLSASPGASASLTCTLRSGINVGTYRIYWYQQKPGSPPQYLLRIIKSGSSDKQQGSGVPSRFSGSKDASANAGILLISGLQSEDEADYYCMIWHSSARNWVFGGGTKLTVLG
notes: also called anti-CCR8 antibody clone I3210
As for B2, the “FcR reporter activation EC50” value in the experiment with human CCR8 [1] was 32.1 pM and 0.00482 µg/mL. For the same molecule, in the experiment with human CCR8 [2], the concentration giving a half-maximal response (EC50) was 0.2 µg/mL and 1.3 nM. Further, in the experiment with human CCR8 [3], the “NK Killing EC50” value is 0.00065 µg/mL and 4.5 pM.

B3: I3213 (antibody, V domains shown)
VH: QVQLVESGGGVVQPGRSLRLSCAASGFTFSSYAMHWVRQAPGKGLEWVAVISYDGSNKYYADSVKGRFTISRDNSKNTLYLQMNSLRAEDTAVYYCARVRDRAFDIWGQGTMVTVSS
VL: QAVLTQPASLSASPGASASLTCTLRSGINLGTYRIYWYQQKPGSPPQYLLRYKSDSDKQQGSGVPSRFSGSKDASANAGILLISGLQSEDEADYYCMIWHSSARNWVFGGGTKLTVLG
notes: also called anti-CCR8 antibody clone I3213
Regarding B3, the “FcR reporter activation EC50” value in the experiment with human CCR8 [1] is 0.00455 µg/mL and 30.4 pM. Further, the half-maximal effective concentration (EC50) with human CCR8 [2] is 0.16 µg/mL and 1.1 nM. Moreover, the “NK Killing EC50” value with human CCR8 [3] was 0.000602 µg/mL and 4.2 pM.

B4: I3144 (antibody, V domains shown)
VH: QVQLVESGGGVVQPGRSLRLSCAASGFTFSSYAMHWVRQAPGKGLEWVAVISYDGSNKYYADSVKGRFTISRDNSKNTLYLQMNSLRAEDTAVYYCARVRDRAFDIWGQGTMVTVSS
VL: QAVLTQPASLSASPGASASLTCTLRSGINVGTYRIYWYQQKPGSPPQYLLRYKSDSDKQQGSGVPSRFSGSKDASANAGILLISGLQSEDEADYYCMIWHSSARNWVFGGGTKLTVL
notes: also called anti-CCR8 antibody clone I3144
On to B4, for which the 50% effective concentration (EC50 (read off the curve)) in the experiment with cynomolgus CCR8 [7] was about 1 µg/mL. The “FcR reporter activation EC50” value with human CCR8 [1] is 0.0091 µg/mL and 60.8 pM. Further, the EC50 with human CCR8 [2] is 4.6 nM and 0.69 µg/mL. The binding result with human CX3CR1 [4] and with human CCR4 [5] was “no binding (tested: 10 ug/ml)” each time.

B5: I2677 (antibody, V domains shown)
VH: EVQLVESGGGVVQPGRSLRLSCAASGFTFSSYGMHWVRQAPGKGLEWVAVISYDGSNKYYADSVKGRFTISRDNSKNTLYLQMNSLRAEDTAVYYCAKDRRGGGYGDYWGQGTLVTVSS
VL: QAVLTQPASLSASPGASASLTCTLRSGINVGTYRIYWYQQKPGSPPQYLLRYKSDSDKQQGSGVPSRFSGSKDASANAGILLISGLQSEDEADYYCMIWHSSARNWVFGGGTQLTVL
notes: also called anti-CCR8 antibody clone I2677
On to B5, for which the binding result with human CX3CR1 [8] and in the experiment with human CCR4 [9] was “no binding (tested: 10 ug/ml)” each time. Also, the “FcR reporter activation EC50” value with human CCR8 [1] is 0.116 µg/mL and 772 pM. Moreover, the half-maximal effective concentration (EC50) was 0.13 µg/mL and 0.9 nM in the experiment with human CCR8 [2]; 9.6 µg/mL and 64 nM with cynomolgus CCR8 [6].

B6: I3145 (antibody, V domains shown)
VH: EVQLVETGGGLIQPGGSLRLSCAASGFTVSSNYMSWVRQAPGKGLEWVSVIYSGGSTYYADSVKGRFTISRDNSKNTLYLQMNSLRAEDTAVYYCARGLGSADYWGQGTLVTVSS
VL: DVVMTQSPLSLPVTLGQPASISCRSSQSLLHSNGNTYLNWFQQRPGQSPRRLIYKVSIRDSGVPDRFSGSGSGTDFTLKISRVEAEDVGLYYCMQSTQWPITFGGGTKLEIK
notes: also called anti-CCR8 antibody clone I3145
As to B6, the “FcR reporter activation EC50” value with human CCR8 [1] is 0.569 µg/mL and 3790 pM. Moreover, the EC50 in the experiment with human CCR8 [2] is 2.43 µg/mL and 16.2 nM. The binding result with human CX3CR1 [4] and with human CCR4 [5] was “no binding (tested: 10 ug/ml)” throughout.
